Measured values from patent publication US20230365956A1.

How the values were obtained:
[1] = target: SARS-CoV-2 RBD variant Gamma (K417T, E484K, N501Y) (Sino Biological) (SARS-CoV-2) (UniProt P0DTC2); assay: BLI, affinity format: response at highest analyte concentration
[2] = target: SARS-CoV-2 RBD variant Alpha (N501Y) (Sino Biological) (SARS-CoV-2) (UniProt P0DTC2); assay: as above
[3] = target: SARS-CoV-2 RBD variant Lambda (L452Q, F490S) (Sino Biological) (SARS-CoV-2) (UniProt P0DTC2); assay: as above
[4] = target: SARS-CoV-2 RBD variant Delta (L452R, T478K) (Sino Biological) (SARS-CoV-2) (UniProt P0DTC2); assay: as above
[5] = target: SARS-CoV-2 RBD variant Beta (K417N, E484K, N501Y) (Sino Biological) (SARS-CoV-2) (UniProt P0DTC2); assay: as above
[6] = target: SARS-CoV-2 RBD variant Kappa (L452R, E484Q) (Sino Biological) (SARS-CoV-2) (UniProt P0DTC2); assay: as above
[7] = target: SARS-CoV-2 RBD variant Gamma (K417T, E484K, N501Y) (Sino Biological) (SARS-CoV-2) (UniProt P0DTC2); assay: BLI, avidity format: response at highest analyte concentration
[8] = target: SARS-CoV-2 RBD variant Alpha (N501Y) (Sino Biological) (SARS-CoV-2) (UniProt P0DTC2); assay: as above
[9] = target: SARS-CoV-2 RBD variant Lambda (L452Q, F490S) (Sino Biological) (SARS-CoV-2) (UniProt P0DTC2); assay: as above
[10] = target: SARS-CoV-2 RBD variant Delta (L452R, T478K) (Sino Biological) (SARS-CoV-2) (UniProt P0DTC2); assay: as above
[11] = target: SARS-CoV-2 RBD variant Beta (K417N, E484K, N501Y) (Sino Biological) (SARS-CoV-2) (UniProt P0DTC2); assay: as above
[12] = target: SARS-CoV-2 RBD variant Kappa (L452R, E484Q) (Sino Biological) (SARS-CoV-2) (UniProt P0DTC2); assay: as above
[13] = target: SARS-CoV-2 RBD variant Gamma (K417T, E484K, N501Y) (Sino Biological) (SARS-CoV-2) (UniProt P0DTC2); assay: BLI, avidity format: biotinylated RBD on SA sensor, binder in solution
[14] = target: SARS-CoV-2 RBD variant Alpha (N501Y) (Sino Biological) (SARS-CoV-2) (UniProt P0DTC2); assay: as above
[15] = target: SARS-CoV-2 RBD variant Lambda (L452Q, F490S) (Sino Biological) (SARS-CoV-2) (UniProt P0DTC2); assay: as above
[16] = target: SARS-CoV-2 RBD variant Delta (L452R, T478K) (Sino Biological) (SARS-CoV-2) (UniProt P0DTC2); assay: as above
[17] = target: SARS-CoV-2 RBD variant Beta (K417N, E484K, N501Y) (Sino Biological) (SARS-CoV-2) (UniProt P0DTC2); assay: as above
[18] = target: SARS-CoV-2 RBD variant Kappa (L452R, E484Q) (Sino Biological) (SARS-CoV-2) (UniProt P0DTC2); assay: as above
[19] = target: SARS-CoV-2 RBD variant Gamma (K417T, E484K, N501Y) (Sino Biological) (SARS-CoV-2) (UniProt P0DTC2); assay: BLI, affinity format: binder on AHC sensor, RBD in solution
[20] = target: SARS-CoV-2 RBD variant Alpha (N501Y) (Sino Biological) (SARS-CoV-2) (UniProt P0DTC2); assay: as above
[21] = target: SARS-CoV-2 RBD variant Lambda (L452Q, F490S) (Sino Biological) (SARS-CoV-2) (UniProt P0DTC2); assay: as above
[22] = target: SARS-CoV-2 RBD variant Delta (L452R, T478K) (Sino Biological) (SARS-CoV-2) (UniProt P0DTC2); assay: as above
[23] = target: SARS-CoV-2 RBD variant Beta (K417N, E484K, N501Y) (Sino Biological) (SARS-CoV-2) (UniProt P0DTC2); assay: as above
[24] = target: SARS-CoV-2 RBD variant Kappa (L452R, E484Q) (Sino Biological) (SARS-CoV-2) (UniProt P0DTC2); assay: as above

## Cilgavimab (antibody)
[1]
  Response: 0.428 nm shift
[2]
  Response: 0.452 nm shift
[3]
  Response: 0.236 nm shift
[4]
  Response: 0.357 nm shift
[5]
  Response: 0.438 nm shift
[6]
  Response: 0.322 nm shift
[7]
  Response: 0.657 nm shift
[8]
  Response: 0.697 nm shift
[9]
  Response: 0.727 nm shift
[10]
  Response: 0.525 nm shift
[11]
  Response: 0.473 nm shift
[12]
  Response: 0.628 nm shift
[13]
  Kd: 0.193 nM
  koff: 7.42e-05 s⁻¹
  kon: 385000 M⁻¹ s⁻¹
[14]
  Kd: 0.124 nM
  koff: 4.26e-05 s⁻¹
  kon: 344000 M⁻¹ s⁻¹
[15]
  Kd: 0.0815 nM
  koff: 2.37e-05 s⁻¹
  kon: 291000 M⁻¹ s⁻¹
[16]
  Kd: 0.0481 nM
  koff: 1.61e-05 s⁻¹
  kon: 335000 M⁻¹ s⁻¹
[17]
  Kd: 0.273 nM
  koff: 9.67e-05 s⁻¹
  kon: 355000 M⁻¹ s⁻¹
[18]
  Kd: 0.204 nM
  koff: 6.08e-05 s⁻¹
  kon: 298000 M⁻¹ s⁻¹
[19]
  Kd: 2.82 nM
  koff: 0.0011 s⁻¹
  kon: 392000 M⁻¹ s⁻¹
[20]
  Kd: 2.44 nM
  koff: 0.000981 s⁻¹
  kon: 401000 M⁻¹ s⁻¹
[21]
  Kd: 9.81 nM
  koff: 0.00348 s⁻¹
  kon: 354000 M⁻¹ s⁻¹
[22]
  Kd: 7.34 nM
  koff: 0.00321 s⁻¹
  kon: 438000 M⁻¹ s⁻¹
[23]
  Kd: 1.43 nM
  koff: 0.000631 s⁻¹
  kon: 441000 M⁻¹ s⁻¹
[24]
  Kd: 9.89 nM
  koff: 0.00364 s⁻¹
  kon: 368000 M⁻¹ s⁻¹
